Results on one substance are retold here after article PMC3752401.

Bounds are passed on as bounds.

Test [1] addresses H3Kc9me3 core mononucleosome. As to the kind of experiment: native gel or EMSA.
Test [2] deals with H3K9 core mononucleosome. Nature of the test: native gel or EMSA. On the technique in general: In EMSA bound probe runs differently from free probe, usually more slowly.
Test [3] concerns the target H3Kc9me3 core mononucleosome. As to the kind of experiment: fluorescence polarisation. Background: Fluorescence polarisation rises when a labelled molecule tumbles more slowly, as on binding a larger partner.

Suv39/Clr4 (full length wild-type), sequence (O60016 whole entry): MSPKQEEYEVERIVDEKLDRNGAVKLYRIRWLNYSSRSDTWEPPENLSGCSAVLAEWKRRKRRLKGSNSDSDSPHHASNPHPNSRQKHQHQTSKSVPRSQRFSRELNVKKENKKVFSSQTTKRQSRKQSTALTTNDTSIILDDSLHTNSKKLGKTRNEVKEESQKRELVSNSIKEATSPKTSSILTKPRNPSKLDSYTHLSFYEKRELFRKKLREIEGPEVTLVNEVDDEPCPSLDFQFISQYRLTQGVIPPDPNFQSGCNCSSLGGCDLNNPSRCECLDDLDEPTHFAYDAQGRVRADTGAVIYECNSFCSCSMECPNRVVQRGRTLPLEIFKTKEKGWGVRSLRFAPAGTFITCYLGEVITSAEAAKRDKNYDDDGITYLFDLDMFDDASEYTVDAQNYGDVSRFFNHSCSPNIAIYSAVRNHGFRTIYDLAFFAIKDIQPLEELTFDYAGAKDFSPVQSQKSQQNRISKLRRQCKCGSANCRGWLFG

“Suv39/Clr4 (full length wild-type) (from UniProt O60016 1-490) (enzyme)”: the K1/2 worked out at 1.5 µM in test [1] and 1.8 µM in test [2]. The substance further returned a fold sensitivity of the FP increase to the H3Kc9me3 mark over the H3K9 control in test [3] of over 25 fold.
